Assay results: paper PMC5113301 (Cell Research, 2016)

Columns and labels:
crystal structure = target: the molecule itself; test: crystal structure
cryo-EM structure = target: the molecule itself; test: cryo-EM structure

B1: seleno-methionine substituted AcrF3 (anti-CRISPR protein encoded by gene 35 from phage JBD5) (natural protein)
chain: MSNTISDRIVARSVIEAARFIQSWEDADPDSLTEDQVLAAAGFAARLHEGLQATVLQRLVDESNHEEYREFKAWEEALLNADGRVASSPFADWGWWYRIANVMLATASQNVGVTWGSRVHGRLMAIFQDKFKQRYEEQA
modifications: seleno-methionine substituted
stoichiometry N (crystal structure): 2

B2: AcrF3 (as in the PaeCas3-AcrF3 complex) (natural protein, phage JBD5)
chain: B1 chain
stoichiometry N (cryo-EM structure): 2
